The source of these data is the supplement of paper PMC9112550, “Optimization of the antimicrobial peptide Bac7 by deep mutational scanning” (BMC Biology, 2022).
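Further: peptides expressed intracellularly from a pBAD plasmid library in pooled LB shake-flask culture, induced with 0.3% L-arabinose, DNA abundance read by NGS, three biological replicates, DESeq2 with apeglm shrinkage.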

This data set deals with Escherichia coli TOP10. Kind of data set: shrunken log2 fold change of peptide-encoding DNA abundance (4.5 h post-induction vs induction); higher = less antimicrobial activity (less host growth inhibition). Conditions: time post-induction: 4.5 h; library: site-saturation at positions 5, 18, 19, 20.
Turning to RRIRHRPPRLPRPRPRPALVPRP, the “shrunken log2 fold change” value was -0.0926. With RRIRIRPPRLPRPRPRPQPMPRP the figure was 0.604. In the case of RRIRFRPPRLPRPRPRPNAHPRP it was 0.0459. In the case of RRIRMRPPRLPRPRPRPVSDPRP it was 2.67; in that of RRIRVRPPRLPRPRPRPEPIPRP, 0.0124; in that of RRIRARPPRLPRPRPRPMDRPRP, 0.108. In the case of RRIRPRPPRLPRPRPRPHEMPRP, the “shrunken log2 fold change” value was -0.142. Turning to RRIRFRPPRLPRPRPRPATNPRP, the “shrunken log2 fold change” value was -0.213. For the sequence RRIRKRPPRLPRPRPRPAAHPRP, the “shrunken log2 fold change” value was 0.408. For RRIRDRPPRLPRPRPRPEFYPRP, the “shrunken log2 fold change” value was 0.475.

Take RRIRRRPPRLPRPRPRPWRVPRP: the “shrunken log2 fold change” value was found to be 0.277. With RRIRGRPPRLPRPRPRPWISPRP the figure was -0.191; with RRIRERPPRLPRPRPRPYVHPRP, -0.00146.

As to RRIRPRPPRLPRPRPRPGQDPRP, the “shrunken log2 fold change” value was -0.0902. With RRIRMRPPRLPRPRPRPIANPRP the figure was 0.333; with RRIRARPPRLPRPRPRPGGDPRP, 0.604; with RRIRDRPPRLPRPRPRPLDNPRP, -0.0187. RRIRIRPPRLPRPRPRPKDSPRP: the “shrunken log2 fold change” value was -0.273.

Consider RRIRMRPPRLPRPRPRPDCHPRP, for which the “shrunken log2 fold change” value was 1.49. With RRIRGRPPRLPRPRPRPISTPRP, the “shrunken log2 fold change” value stood at 0.289. With RRIRSRPPRLPRPRPRPTYLPRP the figure was -0.399. As to RRIRWRPPRLPRPRPRPNVAPRP, the “shrunken log2 fold change” value came to 0.088.

For RRIRWRPPRLPRPRPRPFSFPRP, the “shrunken log2 fold change” value was -0.067. As for RRIRKRPPRLPRPRPRPSYYPRP, the “shrunken log2 fold change” value is -0.983. Take RRIRARPPRLPRPRPRPPSFPRP: the “shrunken log2 fold change” value turned out to be 0.415. In the case of RRIRQRPPRLPRPRPRPIVPPRP it was 0.053.

For the sequence RRIRWRPPRLPRPRPRPPQDPRP, the “shrunken log2 fold change” value amounted to 0.267. In the case of RRIRMRPPRLPRPRPRPSKTPRP it was 0.00519. With RRIRWRPPRLPRPRPRPHNYPRP the figure was -0.267. Consider RRIRIRPPRLPRPRPRPTDPPRP, for which the “shrunken log2 fold change” value is -0.223.

On to RRIRDRPPRLPRPRPRPACLPRP, for which the “shrunken log2 fold change” value was determined as 0.723. In the case of RRIRKRPPRLPRPRPRPHELPRP, the “shrunken log2 fold change” value turned out to be 0.509.

Regarding RRIRLRPPRLPRPRPRPHGWPRP, the “shrunken log2 fold change” value was determined as 0.0568. RRIRWRPPRLPRPRPRPGLKPRP: the “shrunken log2 fold change” value is -0.109. In the case of RRIRNRPPRLPRPRPRPCCRPRP, the “shrunken log2 fold change” value was -0.0438. In the case of RRIRPRPPRLPRPRPRPVNRPRP it was -0.0842. Take RRIRIRPPRLPRPRPRPLLQPRP: the “shrunken log2 fold change” value was -0.163. With RRIRDRPPRLPRPRPRPWILPRP the figure was -0.201; with RRIRHRPPRLPRPRPRPSLMPRP, 0.0202.

In the case of RRIRLRPPRLPRPRPRPCDAPRP, the “shrunken log2 fold change” value is -0.105. Turning to RRIRRRPPRLPRPRPRPHARPRP, the “shrunken log2 fold change” value worked out at 0.586. Consider RRIRMRPPRLPRPRPRPSSIPRP, for which the “shrunken log2 fold change” value was -0.0701. In the case of RRIRLRPPRLPRPRPRPSCQPRP it was -0.256.

In the case of RRIRSRPPRLPRPRPRPQRLPRP, the “shrunken log2 fold change” value is -0.187. In the case of RRIRSRPPRLPRPRPRPRAMPRP it was 0.107; in that of RRIRLRPPRLPRPRPRPSDAPRP, 0.0959.

Take RRIRARPPRLPRPRPRPFAQPRP: the “shrunken log2 fold change” value was 0.213. In the case of RRIRGRPPRLPRPRPRPWIDPRP it was -0.103; in that of RRIRERPPRLPRPRPRPDYIPRP, -0.0061. With RRIRSRPPRLPRPRPRPGRPPRP the figure was 0.245; with RRIRDRPPRLPRPRPRPWLHPRP, -0.00955; with RRIRMRPPRLPRPRPRPKSNPRP, 0.815. With RRIRFRPPRLPRPRPRPANPPRP, the “shrunken log2 fold change” value was -0.156. With RRIRERPPRLPRPRPRPMCAPRP the figure was 0.000297; with RRIRHRPPRLPRPRPRPKRIPRP, -0.0337; with RRIRGRPPRLPRPRPRPRAQPRP, 0.778. In the case of RRIRMRPPRLPRPRPRPTMMPRP it was 0.168; in that of RRIRARPPRLPRPRPRPEPMPRP, 0.44. In the case of RRIRFRPPRLPRPRPRPYRPPRP, the “shrunken log2 fold change” value is -1.76.

As to RRIRTRPPRLPRPRPRPCWMPRP, the “shrunken log2 fold change” value was -0.259. In the case of RRIRGRPPRLPRPRPRPWQGPRP it was 0.015; in that of RRIRVRPPRLPRPRPRPTAQPRP, -0.113.

As to RRIRYRPPRLPRPRPRPRQCPRP, the “shrunken log2 fold change” value was -0.0146. With RRIRIRPPRLPRPRPRPQYLPRP the figure was -0.346. In the case of RRIRDRPPRLPRPRPRPKSRPRP it was 0.0765. RRIRYRPPRLPRPRPRPDWIPRP: the “shrunken log2 fold change” value is -0.589.

Turning to RRIRYRPPRLPRPRPRPAWFPRP, the “shrunken log2 fold change” value was -0.0816. For RRIRQRPPRLPRPRPRPHCMPRP, the “shrunken log2 fold change” value is -0.0175. In the case of RRIRPRPPRLPRPRPRPKCRPRP it was 0.00849; in that of RRIRFRPPRLPRPRPRPGADPRP, 0.187. With RRIRERPPRLPRPRPRPEQTPRP the figure was 0.111.

Consider RRIRDRPPRLPRPRPRPIFIPRP, for which the “shrunken log2 fold change” value was -0.345.

On to RRIRVRPPRLPRPRPRPLGCPRP, for which the “shrunken log2 fold change” value was -0.0466.

Consider RRIRFRPPRLPRPRPRPGYFPRP, for which the “shrunken log2 fold change” value is -0.278.

For RRIRERPPRLPRPRPRPYESPRP, the “shrunken log2 fold change” value was -0.0018. For the sequence RRIRDRPPRLPRPRPRPMNDPRP, the “shrunken log2 fold change” value was -0.126. For RRIRARPPRLPRPRPRPKWLPRP, the “shrunken log2 fold change” value was 0.234.

RRIRWRPPRLPRPRPRPAWIPRP: the “shrunken log2 fold change” value turned out to be 0.035. On to RRIRPRPPRLPRPRPRPIMTPRP, for which the “shrunken log2 fold change” value came to 0.0516. Take RRIRSRPPRLPRPRPRPMYDPRP: the “shrunken log2 fold change” value was 0.0313. RRIRIRPPRLPRPRPRPDVNPRP: the “shrunken log2 fold change” value amounted to 0.0617. RRIRMRPPRLPRPRPRPYVNPRP: the “shrunken log2 fold change” value was -0.284.

Take RRIRERPPRLPRPRPRPQPHPRP: the “shrunken log2 fold change” value is -0.261.

For the sequence RRIRIRPPRLPRPRPRPPEAPRP, the “shrunken log2 fold change” value was determined as 0.276. On to RRIRVRPPRLPRPRPRPGRFPRP, for which the “shrunken log2 fold change” value came out at 0.277. With RRIRKRPPRLPRPRPRPGFNPRP the figure was 0.0583; with RRIRQRPPRLPRPRPRPFLTPRP, -0.156. Regarding RRIRIRPPRLPRPRPRPNWPPRP, the “shrunken log2 fold change” value is -0.146. As for RRIRERPPRLPRPRPRPFMYPRP, the “shrunken log2 fold change” value was -0.551. With RRIRERPPRLPRPRPRPFSKPRP the figure was -0.0819; with RRIRNRPPRLPRPRPRPIPFPRP, -0.0196.

As for RRIRWRPPRLPRPRPRPFGDPRP, the “shrunken log2 fold change” value is -0.249. RRIRLRPPRLPRPRPRPSTWPRP: the “shrunken log2 fold change” value was -0.53. In the case of RRIRCRPPRLPRPRPRPILSPRP it was -0.362; in that of RRIRARPPRLPRPRPRPWCCPRP, 0.104. With RRIRARPPRLPRPRPRPAYAPRP the figure was 0.476; with RRIRRRPPRLPRPRPRPCYQPRP, -0.16; with RRIRHRPPRLPRPRPRPIDHPRP, -0.267. In the case of RRIRRRPPRLPRPRPRPMRIPRP it was 0.0269; in that of RRIRFRPPRLPRPRPRPCSRPRP, -0.22. On to RRIRNRPPRLPRPRPRPFTPPRP, for which the “shrunken log2 fold change” value is -0.197.

RRIRFRPPRLPRPRPRPLKMPRP: the “shrunken log2 fold change” value was -0.428.

As for RRIRDRPPRLPRPRPRPSFKPRP, the “shrunken log2 fold change” value was -0.0471. With RRIRSRPPRLPRPRPRPARQPRP the figure was -0.0654; with RRIRWRPPRLPRPRPRPFKWPRP, -0.223. In the case of RRIRDRPPRLPRPRPRPISIPRP it was 0.0218; in that of RRIRCRPPRLPRPRPRPFPVPRP, 0.11; in that of RRIRWRPPRLPRPRPRPRWIPRP, 0.211. In the case of RRIRNRPPRLPRPRPRPVDIPRP it was 0.00355; in that of RRIRSRPPRLPRPRPRPQQIPRP, 0.153; in that of RRIRSRPPRLPRPRPRPQVPPRP, 0.299.

For the sequence RRIRWRPPRLPRPRPRPTTRPRP, the “shrunken log2 fold change” value was found to be 0.672. For RRIRTRPPRLPRPRPRPYMPPRP, the “shrunken log2 fold change” value is -1.27. With RRIRNRPPRLPRPRPRPLNIPRP the figure was -0.389; with RRIRNRPPRLPRPRPRPLGWPRP, 0.367; with RRIRPRPPRLPRPRPRPEFGPRP, 0.327. In the case of RRIRERPPRLPRPRPRPRYFPRP, the “shrunken log2 fold change” value is -0.54. In the case of RRIRSRPPRLPRPRPRPMMHPRP it was -0.121. In the case of RRIRLRPPRLPRPRPRPNRPPRP it was -0.0609; in that of RRIRMRPPRLPRPRPRPEIWPRP, 1.2.

On to RRIRSRPPRLPRPRPRPEIPPRP, for which the “shrunken log2 fold change” value turned out to be 2.86.

As to RRIRFRPPRLPRPRPRPVFDPRP, the “shrunken log2 fold change” value was -0.258.

As for RRIRVRPPRLPRPRPRPYTFPRP, the “shrunken log2 fold change” value is -0.314. As to RRIRFRPPRLPRPRPRPCAYPRP, the “shrunken log2 fold change” value turned out to be 2.21. Consider RRIRSRPPRLPRPRPRPSINPRP, for which the “shrunken log2 fold change” value is -0.567.
